Data reported in patent US20150274799A1, “GLP-1 ANALOGUE, ITS PREPARATION METHODS AND USE THEREOF” (TIANJIN INSTITUTE OF PHARMACEUTICAL RESEARCH, priority 2011, published 2015).
Ends that are not written are not given here.

Experiments:
[1] = in vivo; cited from earlier work
[2] = cited from earlier work

HAEGTFTSDVSSYLEGQAAKEFIAWLVKGRG [GLP-1]
half-life of GLP-1 administered alone [1]: 3 to 5 min | serum half-life [2]: 3 to 5 min

^7HAEGT FTSDVSSYLEGQAAKEFICWLCKGRG^37GG C GGGGG GGGGG (HAEGTFTSDVSSYLEGQAAKEFICWLCKGRGGGCGGGGGGGGGG; disulfide (positions not given here); also: contains disulfide bonds, places not given here (three Cys)) [SEQ ID NO 58]
half-life in human serum: > 24 h

^7HAEGT FTSDVSSYLEGQAAKEFICWLCKGRG^37GG C GGGGG GGGGGGGGGG (HAEGTFTSDVSSYLEGQAAKEFICWLCKGRGGGCGGGGGGGGGGGGGGG; disulfide (positions not given here); also: contains disulfide bonds, places not given here (three Cys)) [SEQ ID NO 59]
half-life in human serum: > 24 h
